Measured values from US20210277110A1 (Janssen / Centocor, published 2021).
Read-outs that look alike come from different tables or passages of the source.

Tests used:
[1] = biological target: T1, Extracellular domain of cyno PD1 (cPD1-ECD) (Macaca fascicularis (cynomolgus)); assay: SPR ProteOn, cynoPD1-ECD; RANGE low replicate
T1 construct: Expressed with a hexahistidine tag or as Fc fusion; also called cynoPD1-ECD; cynoPD-1-ECD
T1 chain: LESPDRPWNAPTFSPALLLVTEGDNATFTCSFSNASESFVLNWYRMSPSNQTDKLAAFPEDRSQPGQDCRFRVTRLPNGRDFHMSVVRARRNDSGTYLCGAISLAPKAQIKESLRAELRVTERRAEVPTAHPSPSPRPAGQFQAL
Method: (§1) Affinity measurements using Surface Plasmon Resonance (SPR) were performed using a ProteOn XPR36 system. A biosensor surface was prepared by coupling a mixture of anti-IgG Fc modified alginate polymer layer surface of a GLC chip using the manufacturer instructions for amine-coupling chemistry. […] The collected data were processed and fitted to a Langmuir 1:1 binding model. The result for each mAb was reported in the format of kₒₙ (On-rate), koff (Off-rate) and KD (equilibrium dissociation constant).
(§2) STDEV were calculated for 3 or more replicates generated for human and cyno proteins. If less than 3 replicates were calculated, RANGE was indicated. RANGE is defined as the low and high values for the replicates tested. For samples in the Table 10 or Table 11 without value indicated in RANGE or STDEV, only one experiment was performed.

[2] = biological target: T2, Extracellular domain of human PD1 (huPD1-ECD) (human, UniProt Q15116 25-169, biotinylated in the ligand inhibition assay (sites not given)); assay: MSD ligand inhibition, competitor coated cynoPDL1-ECD
T2 construct: Expressed with a hexahistidine tag or as Fc fusion; also called biotinylated PD-1

[3] = biological target: T1, Extracellular domain of cyno PD1 …; assay: SPR ProteOn, captured mAb, cynoPD1-ECD analyte
Method: as §1, §2

[4] = biological target: T2, Extracellular domain of human PD1 …; assay: SPR ProteOn, captured mAb, huPD1-ECD analyte
Method: as §1, §2

[5] = biological target: T1, Extracellular domain of cyno PD1 …; assay: SPR ProteOn, cynoPD1-ECD; RANGE high replicate; RANGE high replicate
[6] = biological target: T1, Extracellular domain of cyno PD1 …; assay: SPR ProteOn, cynoPD1-ECD; RANGE low replicate; RANGE low replicate
Method: as §1
STDEV were calculated for 3 or more replicates generated for human and cyno proteins. If less than 3 replicates were calculated, RANGE was indicated. RANGE is defined as the low and high values for the replicates tested.

[7] = biological target: T1, Extracellular domain of cyno PD1 …; assay: SPR ProteOn, cynoPD1-ECD; RANGE high replicate
Method: as §1, §2

[8] = biological target: T3, Full length human PD1 (huPD1) on cells (human, UniProt Q15116 25-288); assay: flow cytometry, PHA-stimulated Jurkat cells
T3 construct: on T cells of human donors in the MLR and CMV assays (functional); also called PD-1 on Jurkat cells
Method: Jurkat cells were stimulated overnight with 20 ng/ml of PHA, harvested, washed, and checked for viability. The cells were then incubated at 6-10° C. for 45-60 minutes with various concentrations of test antibodies, washed and incubated at 6-10° C. for 45-60 minutes with FITC-labeled goat anti-human IgG. The cells were washed and fixed with BD Cytofix, refrigerated overnight and analyzed on a MACSQuant flow cytometer. The percentage of PD-1 positive cells at each antibody concentration was plotted vs log of the antibody concentration and EC₅₀ values were generated in Prism.

[9] = biological target: T3, Full length human PD1 (huPD1) on cells; assay: cell-based or functional assay
[10] = biological target: T2, Extracellular domain of human PD1 …; assay: SPR ProteOn, captured mAb, huPD1-ECD analyte; remark: listed apart in the source
[11] = biological target: T1, Extracellular domain of cyno PD1 …; assay: SPR ProteOn, captured mAb, cynoPD1-ECD analyte
[12] = biological target: T4, recombinant human TIM-3-Fc fusion protein (huTIM-3-Fc) (human, UniProt Q8TDQ0 22-200); assay: competition ELISA on coated Fc-TIM-3, competitor galectin-9
T4 construct: range 22-200; Bought from R&D Systems (NS0-derived); Deglycosylated for HDX-MS; also called recombinant human Fc-TIM-3 chimera; TIM-3 IgG1 Fc Chimera; not shown: IgG1 Fc of the bought chimera

T3 sequence (Q15116 25-288 limits assumed): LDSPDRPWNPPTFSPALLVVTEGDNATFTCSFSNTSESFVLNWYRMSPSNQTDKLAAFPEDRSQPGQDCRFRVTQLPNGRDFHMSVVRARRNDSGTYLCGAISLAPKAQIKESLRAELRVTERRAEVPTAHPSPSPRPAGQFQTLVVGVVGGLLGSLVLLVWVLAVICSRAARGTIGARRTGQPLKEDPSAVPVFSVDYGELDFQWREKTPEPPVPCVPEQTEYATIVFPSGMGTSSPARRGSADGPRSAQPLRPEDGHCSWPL
T2 sequence (Q15116 25-169 limits assumed): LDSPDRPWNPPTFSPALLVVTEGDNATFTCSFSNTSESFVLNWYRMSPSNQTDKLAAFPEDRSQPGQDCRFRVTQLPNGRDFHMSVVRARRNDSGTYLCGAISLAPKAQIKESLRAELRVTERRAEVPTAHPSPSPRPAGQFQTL

B1: PD1B175 (antibody, V domains shown)
VH: QVQLVQSGAEVKKPGSSVKVSCKASGGTFKSYVIHWVRQAPGQGLEWMGGIIPIFGTANYAQKFQGRVTITADESTSTAYMELSSLRSEDTAVYYCARGYVRATGMLDYWGQGTLVTVSS
VL: EIVLTQSPATLSLSPGERATLSCRASQSVSSYLAWYQQKPGQAPRLLIYDASNRATGIPARFSGSGSGTDFTLTISSLEPEDFAVYYCQQRSNWPLTFGQGTKVEIK
notes: Tested as IgG2sigma; also called PD1H163/PH9L3
With B1 the Kd [1] was 26 nM, the kon [1] was 198000 M⁻¹ s⁻¹ and the “percentage ligand not blocked at 1 µg/ml” value [2] was 6%. The “percentage ligand not blocked at 10 µg/ml” value [2] was 5%, the Kd [3] was 30 nM and the koff [3] was 0.0064 s⁻¹. It also gave a kon [3] of 214000 M⁻¹ s⁻¹, a Kd [4] of 23 nM and a koff [4] of 0.00972 s⁻¹. The kon [4] was 422000 M⁻¹ s⁻¹, the koff [5] was 0.00673 s⁻¹ and the kon [5] was 230000 M⁻¹ s⁻¹. For the same binder, the koff [6] was 0.00606 s⁻¹, the Kd [7] was 34 nM and the EC50 [8] was 0.09 µg/mL.

B2: PD1B199 (antibody, V domains shown)
VH: QVQLVQSGAEVKKPGSSVKVSCKASGGTFSDYVISWVRQAPGQGLEWMGGIIPIYGTANYAQKFQGRVTITADESTSTAYMELSSLRSEDTAVYYCARGTLDRTGHLDYWGQGTLVTVSS
VL: EIVLTQSPATLSLSPGERATLSCRASQSVSSYLAWYQQKPGQAPRLLIHDASTRATGIPARFSGSGSGTDFTLTISSLEPEDFAVYYCQQRNYWPLTFGQGTKVEIK
notes: also called PD1H164/PD1L86
With B2 the “MLR EC50, nM (IFN-γ induction)” value [9] was 0.63 nM, the Kd [10] was 0.6 nM and the koff [10] was 0.000564 s⁻¹. For the same binder, the kon [10] was 933000 M⁻¹ s⁻¹, the Kd [11] was 0.52 nM and the koff [11] was 0.000177 s⁻¹. The kon [11] was 340000 M⁻¹ s⁻¹.

B3: PD1B200 (antibody, V domains shown)
VH: QVQLVQSGAEVKKPGSSVKVSCKASGGTFSDYVISWVRQAPGQGLEWMGGIIPIYGTANYAQKFQGRVTITADESTSTAYMELSSLRSEDTAVYYCARGTLDRTGHLDYWGQGTLVTVSS
VL: EIVLTQSPATLSLSPGERATLSCRASQSVDNYLAWYQQKPGQAPRLLIHDASNRATGIPARFSGSGSGTDFTLTISSLEPEDFAVYYCQQRSAWPLTFGQGTKVEIK
notes: also called PD1H164/PD1L168
With B3 the “CMV EC50, nM (IFN-γ induction)” value [9] was 3.81 nM, the Kd [10] was 1.17 nM and the koff [10] was 0.00122 s⁻¹. For the same binder, the kon [10] was 1.05e+06 M⁻¹ s⁻¹, the Kd [11] was 1.11 nM and the koff [11] was 0.000422 s⁻¹. It also gave a kon [11] of 380000 M⁻¹ s⁻¹.

B4: PD1B201 (antibody, V domains shown)
VH: QVQLVQSGAEVKKPGSSVKVSCKASGGTFSDYVISWVRQAPGQGLEWMGGIIPIYGTANYAQKFQGRVTITADESTSTAYMELSSLRSEDTAVYYCARGTLDRTGHLDYWGQGTLVTVSS
VL: EIVLTQSPATLSLSPGERATLSCRASQSVSNYLAWYQQKPGQAPRLLIYDASNRATGIPARFSGSGSGTDFTLTISSLEPEDFAVYYCQQRNYWPLTFGQGTKVEIK
notes: also called PD1H164/PD1L190
In the case of B4, the “CMV EC50, nM (IFN-γ induction)” value [9] is reported as 2.6 nM, the Kd [10] is reported as 1.12 nM and the koff [10] is reported as 0.000957 s⁻¹. It also gave a kon [10] of 858000 M⁻¹ s⁻¹, a Kd [11] of 0.96 nM and a koff [11] of 0.000293 s⁻¹. The kon [11] was 305000 M⁻¹ s⁻¹.

B5: PD1B243 (antibody, human IgG4 S228P, kappa, V domains shown)
VH: EVQLVESGGGLVQPGGSLRLSCAASGFAFSRYDMSWVRQAPGKGLESVAYISGGGANTYYLDNVKGRFTISRDNAKNSLYLQMNSLRAEDTAVYYCASPYLSYFDVWGQGTLVTVSS
VL: EIVMTQSPATLSVSPGERATLSCRASQSLSDYLHWYQQKPGQAPRLLIKSASQSISGIPARFSGSGSGTEFTLTISSLQSEDFAVYYCQNGHSFPYTFGQGTKLEIKR
With B5 the “CMV EC50, nM (IFN-γ induction)” value [9] was 0.02 nM and the “MLR EC50, nM (IFN-γ induction)” value [9] was 0.07 nM.

B6: PD1B196 (antibody, V domains shown)
VH: QVQLVQSGAEVKKPGSSVKVSCKASGGTFSSYAISWVRQAPGQGLEWMGGIIPIFDTANYAQKFQGRVTITADESTSTAYMELSSLRSEDTAVYYCARPGLAAAYDTGSLDYWGQGTLVTVSS
VL: EIVLTQSPATLSLSPGERATLSCRASQSVRSYLAWYQQKPGQAPRLLIYDASNRATGIPARFSGSGSGTDFTLTISSLEPEDFAVYYCQQRNYWPLTFGQGTKVEIK
notes: also called PD1H170/PD1L148
With B6 the “CMV EC50, nM (IFN-γ induction)” value [9] was 0.31 nM, the “MLR EC50, nM (IFN-γ induction)” value [9] was 0.14 nM and the Kd [10] was 0.41 nM. For the same binder, the koff [10] was 0.000366 s⁻¹, the kon [10] was 883000 M⁻¹ s⁻¹ and the Kd [11] was 0.58 nM. It also gave a koff [11] of 0.000176 s⁻¹ and a kon [11] of 303000 M⁻¹ s⁻¹.

B7: PD1B162 (antibody, human IgG2, kappa, V domains shown)
VH: QVQLVQSGAEVKKPGSSVKVSCKASGGTFSSYAISWVRQAPGQGLEWMGGIIPIFDTANYAQKFQGRVTITADESTSTAYMELSSLRSEDTAVYYCARPGLAAAYDTGNLDYWGQGTLVTVSS
VL: EIVLTQSPATLSLSPGERATLSCRASQSVDSYLAWYQQKPGQAPRLLIYDASNRATGIPARFSGSGSGTDFTLTISSLEPEDFAVYYCQQREYWPLTFGQGTKVEIKR
notes: IgG2sigma/kappa; VH 42, VL 52; also called PD1H131/PD1L67
For B7, the Kd [1] was 2.5 nM, the kon [1] was 384000 M⁻¹ s⁻¹ and the “percentage ligand not blocked at 1 µg/ml” value [2] was 7%. For the same binder, the “percentage ligand not blocked at 10 µg/ml” value [2] was 6%, the Kd [3] was 2.53 nM and the koff [3] was 0.000979 s⁻¹. The kon [3] was 387000 M⁻¹ s⁻¹, the Kd [4] was 5.95 nM and the koff [4] was 0.00386 s⁻¹. It also gave a kon [4] of 649000 M⁻¹ s⁻¹, a koff [5] of 0.000998 s⁻¹ and a koff [6] of 0.000959 s⁻¹. The Kd [7] was 2.6 nM, the kon [7] was 389000 M⁻¹ s⁻¹ and the EC50 [8] was 0.05 µg/mL.

B8: PD1B164 (antibody, human IgG2, kappa, V domains shown)
VH: QVQLVQSGAEVKKPGSSVKVSCKASGGTFSSYAISWVRQAPGQGLEWMGGIIPIFDTANYAQKFQGRVTITADESTSTAYMELSSLRSEDTAVYYCARPGLAAAYDTGNLDYWGQGTLVTVSS
VL: EIVLTQSPATLSLSPGERATLSCRASQSVRSYLAWYQQKPGQAPRLLIYDASYRATGIPARFSGSGSGTDFTLTISSLEPEDFAVYYCQQRDYWPLTFGQGTKVEIKR
notes: IgG2sigma/kappa; VH 42, VL 53; also called PD1H131/PD1L71
B8 was tested, and the Kd [1] was 1.06 nM, the kon [1] was 267000 M⁻¹ s⁻¹ and the “percentage ligand not blocked at 1 µg/ml” value [2] was 6%. The “percentage ligand not blocked at 10 µg/ml” value [2] was 3%, the Kd [3] was 1.07 nM and the koff [3] was 0.000287 s⁻¹. For the same binder, the kon [3] was 267000 M⁻¹ s⁻¹, the Kd [4] was 2.92 nM and the koff [4] was 0.00131 s⁻¹. It also gave a kon [4] of 448000 M⁻¹ s⁻¹, a koff [5] of 0.000291 s⁻¹ and a koff [6] of 0.000282 s⁻¹. For the same binder, the Kd [7] was 1.09 nM, the kon [7] was 267000 M⁻¹ s⁻¹ and the EC50 [8] was 0.06 µg/mL.

B9: TM3B113 (antibody, V domains shown)
VH: EVQLLESGGGLVQPGGSLRLSCAASGFTFSDYWMSWVRQAPGKGLEWVSVIKYSGGSKYYADSVKGRFTISRDNSKNTLYLQMNSLRAEDTAVYYCAKELEGVFDYWGQGTLVTVSS
VL: EIVLTQSPGTLSLSPGERATLSCRASQSVSNSTLAWYQQKPGQAPRLLIYTASSRATGIPDRFSGSGSGTDFTLTISRLEPEDFAVYYCQQSYTSPWTFGQGTKVEIK
notes: also called TM3H65/TM3L12
B9 was tested, and the “Galectin 9 Inhibition, % inhibition (maximal)” value [12] was 75.6%.

B10: TM3B193 (antibody, V domains shown)
VH: EVQLQQSGAELVKPGASVKLSCTASGFHIKDTYLHWVKQRPEQGLEWIGRIDPTNGNIKYDPKFQGKATITSDTSSNTAYLQLSSLTSEDTAVYYCARPYYGFFDYWGQGTTLTVSS
VL: DIVMTQSHKFMSTSVGDRVSITCKASQDVNTAVAWYQQKPGQSPKLLIYSATYRYTGVPDRFTGSGSGTDFTFTISSVQAEDLAVYYCQQHYSTPYTFGSGTKLEIK
notes: Mouse-derived variable domains; also called TM3H99/TM3L52
B10 was tested, and the “Galectin 9 Inhibition, % inhibition (maximal)” value [12] was 47.4%.

B11: TM3B196 (antibody, V domains shown)
VH: QVQLKESGPGLVAPSQSLSITCTISGFSLTSYGVHWVRQPPGKGLEWLVVIWSDGSTTYNSALKSRLSISKDNSKSQVFLKMNSLQTDDTAMYYCARQANYRYDSAMDYWGQGTSVTVSS
VL: DIQMTQSPASLAVSLGQRATISCKASQSVDYDGDSYMNWYQQKPGQPPKLLIYTAANLQSGIPARFSGSGSGTDFTLNIHPVEEEDAATYYCQQSNEDPFTFGSGTKLEIK
notes: Mouse-derived variable domains; also called TM3H102/TM3L64
For B11, the “Galectin 9 Inhibition, % inhibition (maximal)” value [12] was 57%.
